Where a chain is given by its changes, count along the chain named. In names and notes the source's numbering stands. One block for each molecule: values may come before it.
Columns and labels:
[1] = target: mCcd1 DIX domain R400A (mouse)
[2] = target: mCcd1 DIX domain L402A (mouse)
[3] = target: mCcd1 DIX domain D399A (mouse)
MBP-fused zCcd1 DIX = target: T1, MBP-fused zCcd1 DIX (zebrafish, UniProt Q804T6 356-438); experiment: pull-down; MBP-fused mCcd1, zCcd1 or Dvl1 DIX (0.8 mM) held on amylose resin, Axin DIX or Dvl1 DIX free; pull-down buffer, 277 K (Figures 5f, 5g); conditions: both partners purified
T1 construct: DIX domain of zebrafish Ccd1, cDNA Gene ID 360137; The uncleaved precursor of m2; also called MBP-fused zCcd1 DIX domain; source: E. coli (plasmid pOPINM), purified (amylose resin)
T1 sequence (looked up): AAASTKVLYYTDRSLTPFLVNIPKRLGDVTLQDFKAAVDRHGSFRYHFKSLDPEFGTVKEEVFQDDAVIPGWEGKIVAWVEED

mCcd1 DIX domain L402A = target: T2, mCcd1 DIX domain L402A; experiment: dynamic light scattering; conditions: chain shown with the change;; parent: est. 4.4; read off a plot
T2 chain: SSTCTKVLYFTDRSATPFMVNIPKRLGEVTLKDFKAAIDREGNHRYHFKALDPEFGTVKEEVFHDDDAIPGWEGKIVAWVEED

mCcd1 DIX domain W466A = target: T3, mCcd1 DIX domain W466A; experiment: dynamic light scattering; conditions: chain shown with the change;; parent: est. 4.4; read off a plot
T3 chain: T2 chain with A15L, W79A

mCcd1 DIX domain F397A = target: T4, mCcd1 DIX domain F397A; experiment: dynamic light scattering; conditions: chain shown with the change;; parent: est. 4.4; read off a plot
T4 chain: T2 chain with F10A, A15L

[4] = target: the molecule itself; experiment: SEC; gel filtration chromatography of the DIX domains without carrier (Figures 1b and 4e)

- TCF-dependent transcription (TOPflash luciferase reporter, HeLa cells transfected with FLAG-tagged mCcd1 BalphaL R400A), compared to the wild type [1]: 1.4 fold
Molecule: mCcd1 DIX domain R400A (domain or fragment)

- TCF-dependent transcription (TOPflash luciferase reporter, HeLa cells transfected with FLAG-tagged mCcd1 BalphaL L402A), compared to the wild type [2]: 1.5 fold
Molecule: mCcd1 DIX domain L402A (domain or fragment)

- TCF-dependent transcription (TOPflash luciferase reporter, HeLa cells transfected with FLAG-tagged mCcd1 BalphaL D399A), compared to the wild type [3]: 1.3 fold
Molecule: mCcd1 DIX domain D399A (domain or fragment)

- fold binding relative to MBP-fused mCcd1 DIX (MBP-fused zCcd1 DIX): 1.53 fold
B1: Axin DIX domain (domain or fragment, UniProt O70239 745-827, looked up)
chain: CDSIVVAYYFCGEPIPYRTLVRGRAVTLGQFKELLTKKGSYRYYFKKVSDEFDCGVVFEEVREDEAILPVFEEKIIGKVEKVD
notes: DIX domain of Axin; source: E. coli, expressed as a fusion construct with GST or MBP, purified

- other: DLS peak size (diameter) of homopolymer (mCcd1 DIX domain L402A): 7.3 nm
B2: mouse Coiled-coil-DIX1 (mCcd1) DIX domain L402A (protein)
chain: T2 chain

- other: DLS peak size (diameter) of homopolymer (mCcd1 DIX domain W466A): 8.2 nm
B3: mouse Coiled-coil-DIX1 (mCcd1) DIX domain W466A (protein)
chain: T2 chain with A15L, W79A

- other: DLS peak size (diameter) of homopolymer (mCcd1 DIX domain F397A): 5.5 nm
B4: mouse Coiled-coil-DIX1 (mCcd1) DIX domain F397A (protein)
chain: T2 chain with F10A, A15L

B5: zebrafish Coiled-coil-DIX1 (zCcd1) DIX domain (domain or fragment, UniProt Q804T6 356-438, looked up)
chain: T1 sequence (looked up)
notes: DIX domain of zebrafish Coiled-coil-DIX1 (zCcd1), residues 356-438, cDNA Gene ID 360137; also called zCcd DIX domain; Zebrafish CCD1; source: E. coli (plasmid pOPINM), purified (amylose resin, HRV3C cleavage, HiTrap Q)
- stoichiometry N [4]: 2

Source: publication PMC5552852, “Structural basis for Ccd1 auto-inhibition in the Wnt pathway through homomerization of the DIX domain” (Scientific Reports, 2017)
